Measurements reported in US20260250379A1 (HANGZHOU SUMGEN BIOTECH, published 2026).
Substitutions are numbered along the chain they refer to.

B1: chimeric antibody 1A2-7 (antibody, V domains shown)
VH: QVQLQQPGAELVKPGASVKLSCKASGYTFTSYWMHWVKQRPGQGLEWIGEINPSNGRTNYNEKFKSKATLTVDKSSSTAYMQLNSLTSEDSAVYYCARDRYDEGNAMDYWGQGTSVTVSS
VL: DIVMTQTTSSLSASLGDRVTISCRASQDITNYLNWYQQKPDGTVKLLIYYTSRLHSGVPSRFSGSGSGTDYSLTISNLEQEDIATYFCQQGDTLPRTFGGGTKLEIK
B2: chimeric antibody 3A2-18 (antibody, V domains shown)
VH: B1 VH with Q1E, M81V
VL: B1 VL
notes: Full chains are not tied by name
B3: humanized antibody RB4-G1-018 (antibody, human IgG1, kappa, V domains shown)
VH: QVQLVQSGAEVKKPGASVKVSCKASGYTFTSYWMHWVRQAPGQGLEWIGEINPSNGRTNYNEKFKSRATLTVDKSTSTAYMELSSLRSEDTAVYYCARDRYDEGNAMDYWGQGTTVTVSS
VL: DIQMTQSPSSLSASVGDRVTITCRASQDITNYLNWYQQKPGKAPKLLIYYTSRLHSGVPSRFSGSGSGTEYTLTISSLQPDDFATYYCQQGDTLPRTFGQGTRLEIKR
B4: humanized antibody RB4-G1-019 (antibody, human IgG1, kappa, V domains shown)
VH: B3 VH with I48M, A68V, A79V
VL: B3 VL
B5: humanized antibody RB4-G1-022 (antibody, human IgG1, kappa, V domains shown)
VH: B3 VH
VL: B3 VL with E70D, L73F, D81E, F83I
B6: humanized antibody RB4-G1-020 (antibody, human IgG1, kappa, V domains shown)
VH: B3 VH with I48M, A68V, L70M, V72R, K74T, A79V
VL: B3 VL
B7: chimeric antibody 3G9-1 (antibody, V domains shown)
VH: QVQLQQPGAELVKPGASVKLSCKASGYTFTSYWMHWVKQRPGQGLEWIGEINPSNGRTNYNEKFKSKATLIVDKSSSTAYMQLSSLTSEDSAVYYCARGIYYGYDYAMDYWGQGTSVTVSS
VL: B1 VL with V3Q, Q6H, T30S, D92N, R96P
notes: as for B2
B8: chimeric antibody 5E11-2 (antibody, V domains shown)
VH: EVKLEESGGGLVQPGGSMKLSCAASGFTFSDAWMDWVRQSPEKGLEWVAEIRSKPNNHATYYAESVKGRFTISRDDSKSSVYLQMNSLRAEDTGIYYCTRTTDYSMDYWGQGTSVTVSS
VL: DIQMTQSPASLAVSLGQRATISCRASQSVSASSYSYMHWYQQKPGQPPKLLIKYASNLQSGVPARFSGSGSGTDFTLNIHPVEEEDSATYYCQHSWEIPRTFGGGTKLEIK
notes: as for B2

These binders were tested against T1, LILRB4 on LILRB4 effector reporter cells (jurkat-LILRB4) (UniProt Q8NHJ6 22-448) (assay: cell-based or functional assay).

| EC50 (read off the curve); luciferase RLU, blocking of APOE [ng/mL] | Binder |
| --- | --- |
| ~0.03 | B1 |

Molecular target: T1, LILRB4 on LILRB4 effector reporter …
Assay: cell-based or functional assay
Remark: another data set of the same source

| EC50 (read off the curve); luciferase RLU, blocking of APOE [ng/mL] | Binder |
| --- | --- |
| ~10 | B2 |

Molecular target: T1, LILRB4 on LILRB4 effector reporter …
Assay: cell-based or functional assay
Remark: another data set of the same source

| EC50 (read off the curve); luciferase RLU, blocking of APOE [ng/mL] | Binder |
| --- | --- |
| ~10 | B3 |
| ~10 | B4 |
| ~20 | B5 |
| ~20 | B6 |

What follows are binders tested against human LILRB4 on 293T-hLILRB4 cells (human, UniProt Q8NHJ6 22-448) (assay: cell-based or functional assay).

| EC50 (read off the curve); ADCC reporter induction multiple [ng/mL] | Binder |
| --- | --- |
| ~60 | B3 |
| ~60 | B4 |
| ~50 | B5 |
| ~60 | B6 |

These binders were tested against T2, LILRB4 on human mononuclear leukemia cells THP-1 (human, UniProt Q8NHJ6 22-448) (assay: flow cytometry on THP-1 cells, PE goat anti-human IgG Fc, MFI).
T2 construct: whole, on cells; The protein is endogenous to the cells; also called LILRB4 positive cells THP-1

| EC50 (read off the curve) [ng/mL] | Binder |
| --- | --- |
| ~30 | B3 |
| ~30 | B4 |
| ~40 | B5 |
| ~30 | B6 |

What follows are binders tested against T3, Human LILRB4/CD85k/ILT3 Protein (ECD, His Tag), Sino Biological (human, UniProt Q8NHJ6 22-259) (assay: ELISA, human LILRB4 ECD-His coated, HRP goat anti-human IgG Fc, OD450).
T3 construct: extracellular domain; It is not tied to this bought protein; also called LILRB4 protein; not shown: His tag

| EC50 (read off the curve) [ng/mL] | Binder |
| --- | --- |
| ~30 | B1 |
| ~20 | B7 |
| ~30 | B2 |
| ~50 | B8 |

Molecular target: T3, Human LILRB4/CD85k/ILT3 Protein (ECD, …)
Assay: as above
Remark: another data set of the same source

| EC50 (read off the curve) [ng/mL] | Binder |
| --- | --- |
| ~30 | B3 |
| ~30 | B4 |
| ~30 | B5 |
| ~30 | B6 |

What follows are binders tested against T4, LILRB4 (Beijing ACROBiosystems, article number LI4-H52H7, 6xHis label) (human, UniProt Q8NHJ6 22-259) (assay: SPR, BIACORE 8K; antibody captured on Protein A chip, LILRB4-6xHis as analyte).
T4 construct: Analyte (mobile phase) in the BIACORE 8K assay; also called Human LILRB4; not shown: 6xHis label
Description: A BIACORE 8K biomacromolecule interactor (GE Company) was adopted to analyze the affinity of an antibody. A Series S Sensor Chip Protein A Chip (GE Company) was used for capturing an antibody to be detected, the concentration of the antibody to be detected was set to be 15 μg/mL, and the sample was fed at a speed of 10 μl/min until RU=500; LILRB4 (Beijing ACROBiosystems, article number: LI4-H52H7, 6×His label, and the theoretical molecular weight: 28.2 Kda) was used as a mobile phase, 6 concentration gradients (0.0977 nM-200 nM) were used, and the binding time was 180 sec; and the dissociation time was 300 sec. The result of the affinity of the antibody to be detected is as set forth in follows: […]

| Kd [nM] | koff [s⁻¹] | kon [M⁻¹ s⁻¹] | Binder |
| --- | --- | --- | --- |
| 2.81 | 0.00433 | 1.54e+06 | B3 |
| 2.77 | 0.00343 | 1.24e+06 | B4 |
| 2.33 | 0.00418 | 1.8e+06 | B5 |
| 3.29 | 0.00834 | 2.53e+06 | B6 |

The binders below were run against T5, Human LILRB1/CD85/ILT2/ILR1 Protein (ECD, His Tag), Sino Biological (human, UniProt Q8NHL6 24-461) (assay: ELISA, LILRB family proteins (His tag) coated, antibody at 10 ug/mL, HRP goat anti-human IgG Fc, OD450).
T5 construct: extracellular domain; not shown: His tag
T5 sequence (Q8NHL6 24-461): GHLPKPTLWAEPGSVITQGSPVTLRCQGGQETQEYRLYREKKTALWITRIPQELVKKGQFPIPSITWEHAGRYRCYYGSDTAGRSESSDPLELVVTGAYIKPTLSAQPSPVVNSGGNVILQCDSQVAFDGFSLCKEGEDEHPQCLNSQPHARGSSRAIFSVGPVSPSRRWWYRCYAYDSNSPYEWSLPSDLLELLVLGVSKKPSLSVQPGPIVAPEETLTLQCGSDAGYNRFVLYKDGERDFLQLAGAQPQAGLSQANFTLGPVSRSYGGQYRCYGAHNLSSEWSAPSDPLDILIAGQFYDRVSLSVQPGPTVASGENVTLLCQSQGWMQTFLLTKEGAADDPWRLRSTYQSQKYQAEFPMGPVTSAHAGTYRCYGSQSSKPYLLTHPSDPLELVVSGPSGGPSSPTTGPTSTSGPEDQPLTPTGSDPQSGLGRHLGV

| binding result | Binder |
| --- | --- |
| no binding (tested: 10 ug/mL) | B1 |
| no binding (tested: 10 ug/mL) | B7 |
| no binding (tested: 10 ug/mL) | B2 |
| no binding (tested: 10 ug/mL) | B8 |

The binders below were run against T6, Human LILRB2/ILT4/LIR-2 Protein (ECD, His Tag), Sino Biological (human, UniProt Q8N423 22-460) in the same assay as above.
T6 construct: extracellular domain; not shown: His tag
T6 sequence (Q8N423 22-460): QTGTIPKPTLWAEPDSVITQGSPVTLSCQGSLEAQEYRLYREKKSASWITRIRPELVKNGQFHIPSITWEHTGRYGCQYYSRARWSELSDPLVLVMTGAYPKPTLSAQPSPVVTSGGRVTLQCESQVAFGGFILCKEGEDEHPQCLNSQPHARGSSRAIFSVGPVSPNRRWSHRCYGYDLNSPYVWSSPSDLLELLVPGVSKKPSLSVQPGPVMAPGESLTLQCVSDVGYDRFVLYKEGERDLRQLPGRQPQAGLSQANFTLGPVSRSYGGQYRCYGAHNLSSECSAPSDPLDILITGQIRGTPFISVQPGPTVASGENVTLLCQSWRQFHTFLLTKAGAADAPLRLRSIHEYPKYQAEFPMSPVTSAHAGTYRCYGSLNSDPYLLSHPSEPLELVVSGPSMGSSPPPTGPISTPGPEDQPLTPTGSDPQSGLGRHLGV

| binding result | Binder |
| --- | --- |
| no binding (tested: 10 ug/mL) | B1 |
| no binding (tested: 10 ug/mL) | B7 |
| no binding (tested: 10 ug/mL) | B2 |
| no binding (tested: 10 ug/mL) | B8 |

These binders were tested against T7, Human LILRB3/LIR3/ILT5/CD85a Protein (ECD, His Tag), Sino Biological (human, UniProt O75022 24-443) in the same assay as above.
T7 construct: extracellular domain; not shown: His tag
T7 sequence (O75022 24-443): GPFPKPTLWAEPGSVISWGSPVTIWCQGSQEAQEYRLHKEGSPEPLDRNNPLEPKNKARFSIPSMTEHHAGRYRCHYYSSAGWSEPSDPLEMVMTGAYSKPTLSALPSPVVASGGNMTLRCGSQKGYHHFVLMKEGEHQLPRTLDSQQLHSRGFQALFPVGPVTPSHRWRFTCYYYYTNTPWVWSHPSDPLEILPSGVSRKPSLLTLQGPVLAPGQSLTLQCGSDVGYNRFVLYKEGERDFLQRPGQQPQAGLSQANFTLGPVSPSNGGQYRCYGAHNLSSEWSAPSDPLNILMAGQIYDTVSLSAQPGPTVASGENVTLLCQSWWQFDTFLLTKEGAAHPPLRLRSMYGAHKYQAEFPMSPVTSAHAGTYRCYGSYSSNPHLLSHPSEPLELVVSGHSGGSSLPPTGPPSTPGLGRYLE

| binding result | Binder |
| --- | --- |
| no binding (tested: 10 ug/mL) | B1 |
| no binding (tested: 10 ug/mL) | B7 |
| no binding (tested: 10 ug/mL) | B2 |
| no binding (tested: 10 ug/mL) | B8 |

What follows are binders tested against T8, Human LILRB5/CD85c/LIR-8 Protein (ECD, His Tag), Sino Biological (human, UniProt O75023 24-458) in the same assay as above.
T8 construct: extracellular domain; not shown: His tag
T8 sequence (O75023 24-458): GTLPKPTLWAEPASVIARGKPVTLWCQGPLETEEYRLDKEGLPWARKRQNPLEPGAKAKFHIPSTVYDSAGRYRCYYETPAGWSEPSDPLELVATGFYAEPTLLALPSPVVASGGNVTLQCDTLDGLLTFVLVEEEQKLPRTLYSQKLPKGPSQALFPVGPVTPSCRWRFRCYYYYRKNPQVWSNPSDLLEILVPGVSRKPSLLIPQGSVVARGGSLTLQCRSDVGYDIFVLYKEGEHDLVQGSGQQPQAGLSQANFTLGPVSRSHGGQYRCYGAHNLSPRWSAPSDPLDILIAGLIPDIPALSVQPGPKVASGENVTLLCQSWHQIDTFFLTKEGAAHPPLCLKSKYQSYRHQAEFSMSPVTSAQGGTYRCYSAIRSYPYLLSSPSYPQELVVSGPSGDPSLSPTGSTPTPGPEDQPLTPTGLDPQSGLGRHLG

| binding result | Binder |
| --- | --- |
| no binding (tested: 10 ug/mL) | B1 |
| no binding (tested: 10 ug/mL) | B7 |
| no binding (tested: 10 ug/mL) | B2 |
| no binding (tested: 10 ug/mL) | B8 |
